Key:
Assay type in all cases: biochemical
[1] = Activity for Stevioside to Rebaudioside E conversion with UGTSL, UGTSL2, UGTLB (Examples 28, 32); conditions: reaction time UGTSL 22 h., UGTSL2 2 h., 600 μL lysate, based on initial concentration of Stevioside
Procedure: (§1) Activity tests were performed at 3 mL scale with 600 μL of lysate for the transformation of Stevioside using 0.5 mM of substrate, 2.5 mM of UDP-Glucose and 3 mM MgCl2 in 50 mM Sodium Phosphate buffer at pH 7.2. Samples were taken and analyzed by HPLC. HPLC Analysis. The HPLC assay was performed as described in EXAMPLE 20.
as §1, with “HPLC.” for “HPLC. HPLC Analysis.”, “corresponding chromatograms are depicted” for “HPLC assay was performed as described”, “FIG. 63a.” for “EXAMPLE 20.”

[2] = Activity for Rubusoside to Rebaudioside E conversion with UGTSL, UGTSL2, UGTLB (Examples 29, 32); conditions: reaction time UGTSL 45 h., UGTSL2 2 h., 600 μL lysate, based on initial concentration of Rubusoside
Procedure: as §1, with “Rubusoside” for “Stevioside”, “HPLC.” for “HPLC. HPLC Analysis.”
(§2) Activity tests were performed at 3 mL scale with 600 μL of lysate for the transformation of Rubusoside using 0.5 mM of substrate, 2.5 mM of UDP-Glucose and 3 mM MgCl2 in 50 mM Sodium Phosphate buffer at pH 7.2. Samples were taken and analyzed by HPLC. The corresponding chromatograms are depicted in FIG. 63b.

[3] = Activity for Rebaudioside A to Rebaudioside D conversion with UGTSL2, UGTLB (Examples 30, 32); conditions: 23 h., 60 μL lysate, based on initial concentration of Rebaudioside A
Procedure: as §1, with “60” for “600”, “Rebaudioside A” for “Stevioside”, “HPLC.” for “HPLC. HPLC Analysis.”
as §2, with “Rebaudioside A” for “Rubusoside”, “chromatogram after 23 h. of reaction is” for “chromatograms are”, “63c.” for “63b.”

[4] = Rubusoside conversion products with UGTSL, UGTSL2, UGTLB by LCMS (Example 33); conditions: reaction time UGTSL2 2 hrs, UGTLB 5 hrs, UGTSL 45 hrs
Procedure: (§3) Conversion of stevioside with UGTSL and UGTSL2 was conducted in similar manner to Example 28, and the conversion of rubusoside with UGTSL and UGTSL2 was conducted similarly to Example 29. Conversions of rubusoside and stevioside with UGTLB was conducted similarly to Example 32.
(§4) The reaction mixtures were analyzed by LCMS to determine all reaction products.

[5] = Stevioside conversion products with UGTSL, UGTSL2, UGTLB by LCMS (Example 33); conditions: reaction time UGTSL2 2 hrs, UGTLB 2 hrs, UGTSL 22 hrs
Procedure: as §3, §4

[6] = Directed evolution of UGTSL2, Rebaudioside A to Rebaudioside D, round 1 (Example 45)
Procedure: Lysis was performed by addition of Bugbuster® Master mix (Novagen®) to the thawed cells and the lysate was recovered by centrifugation. […]
The reaction was allowed to run at 30° C. and samples were taken after 2, 4, 6 and 22 h. to determine the initial rate by HPLC (CAD detection) using the analytical method that was described above for the transformation of Rebaudioside A to Rebaudioside D. In parallel the experiments were performed with baseline clone, UGTSL2. The initial rate for this baseline clone was defined as 100%. As an indication of the specificity of the clones, Rebaudioside M2 content was determined at 100% UDP-Glucose conversion and Rebaudioside D2 content was determined at 50% UDP-Glucose conversion. Wherein UDP glucose conversion is defined as: ([Reb D]/[Reb A]0)+([Reb D2]/[Reb A]0)+2*([Reb M2]/[Reb A]0).
The normalized initial rate, Rebaudioside M2 content at 100% UDP-glucose conversion and Rebaudioside D2 content at 50% UDP-glucose conversion are depicted in the following table

[7] = Directed evolution of UGTSL2 round 2, initial rate for Rebaudioside A conversion (Example 48); conditions: UGTSL2 round 2 clone lysates, 0.5 mM Rebaudioside A, 30° C., pH 7.2; baseline clone UGTSL2 defined as 100%
Procedure: (§5) In order to measure the activity of the variants for the transformation of Rebaudioside A to Rebaudioside D, 100 μL of fresh lysate was added to a solution of Rebaudioside A (final concentration 0.5 mM), MgCl2 (final concentration 3 mM) and UDP-Glucose (final concentration 2.5 mM) in 50 mM phosphate buffer pH 7.2. The reaction was allowed to run at 30° C. and samples were taken after 2, 4, 6 and 22 h. to determine the initial rates after HPLC analysis (CAD detection) using the analytical method that was described above for the transformation of Rebaudioside A to Rebaudioside D.
(§6) Apart from the new variants, both experiments were also performed with baseline clone, UGTSL2. The initial rates for the conversion of Rebaudioside A or Rebaudioside D for this baseline clone were defined as 100%.
(§7) Activity of each clone was defined as normalized activity compared to baseline clone UGTSL2 whereas specificity of each clone was expressed as the ratio between the initial rates for the conversion of Rebaudioside A and Rebaudioside D.

[8] = Directed evolution of UGTSL2 round 2, initial rate for Rebaudioside D conversion (Example 48); conditions: UGTSL2 round 2 clones; specificity
Procedure: The reaction was allowed to run at 30° C. and samples were taken after 2, 4, 6 and 22 h. to determine the initial rates for Rebaudioside D conversion after HPLC analysis (CAD detection).
as §6, §7

[9] = Directed evolution of UGTSL2 round 3, initial rate for Rebaudioside A conversion (Example 53); conditions: UGTSL2 round 3 clone lysates, 0.5 mM Rebaudioside A, 30° C., pH 7.2; baseline clone UGTSL2 defined as 100%
Procedure: as §5
(§8) Apart from the new variants for this round, both experiments were also performed with baseline clone, UGTSL2. The initial rates for the conversion of Rebaudioside A or Rebaudioside D for this baseline clone were defined as 100%.
as §7

[10] = Directed evolution of UGTSL2 round 3, initial rate for Rebaudioside D conversion (Example 53); conditions: UGTSL2 round 3 clones; specificity
Procedure: In parallel 100 μL of fresh lysate was added to a solution of Rebaudioside D (final concentration 0.5 mM), MgCl2 (final concentration 3 mM) and UDP-Glucose (final concentration 2.5 mM) in 50 mM phosphate buffer pH 7.2. The reaction was allowed to run at 30° C. and samples were taken after 2, 4, 6 and 22 h. to determine the initial rates for Rebaudioside D conversion after HPLC analysis (CAD detection).
as §8, §7

[11] = 0.5 mM substrate, 2.5 mM UDP-Glucose, pH 7.2
[12] = UGTSL2 round 1 clones, indication of specificity

B1: UGTSL2: UDP-glucosyltransferase, Solanum lycopersicum, SEQ ID NO:9 (protein, listed as Solanum lycopersicum)
chain: MATNLRVLMFPWLAYGHISPFLNIAKQLADRGFLIYLCSTRINLESIIKKIPEKYADSIHLIELQLPELPELPPHYHTTNGLPPHLNPTLHKALKMSKPNFSRILQNLKPDLLIYDVLQPWAEHVANEQNIPAGKLLTSCAAVFSYFFSFRKNPGVEFPFPAIHLPEVEKVKIREILAKEPEEGGRLDEGNKQMMLMCTSRTIEAKYIDYCTELCNWKVVPVGPPFQDLITNDADNKELIDWLGTKHENSTVFVSFGSEYFLSKEDMEEVAFALELSNVNFIWVARFPKGEERNLEDALPKGFLERIGERGRVLDKFAPQPRILNHPSTGGFISHCGWNSAMESIDFGVPIIAMPIHNDQPINAKLMVELGVAVEIVRDDDGKIHRGEIAETLKSVVTGETGEILRAKVREISKNLKSIRDEEMDAVAEELIQLCRNSNKSK
- Rebaudioside E formation ([1]; 0.5 mM Stevioside): 50%
- Stevioside conv. (reaction time) [1, 11]: 77% (2 h.)
- Rebaudioside E formation ([2]; 0.5 mM Rubusoside): 55%
- Rubusoside conv. (reaction time) [2, 11]: 80% (2 h.)
- Rebaudioside D formation ([3]; 0.5 mM Rebaudioside A): 75%
- Rebaudioside A conv. (reaction time) [3, 11]: 78% (23 h.)
- LC-MS, peak area ratio (%): REb E [4]: 52.88%
- LC-MS, peak area ratio (%): Reb D [4]: 6.73%
- LC-MS, peak area ratio (%): Rub [4]: 3.54%
- LC-MS, peak area ratio (%): Stev [4]: 2.12%
- LC-MS, peak area ratio (%): Unknown peak #1 (MW804) RT 30.70 min [4]: 12.02%
- LC-MS, peak area ratio (%): Unknown peak #2 (MW804) RT 49.50 min [4]: 9.94%
- LC-MS, peak area ratio (%): Unknown peak #3 (MW804) RT 50.40 min [4]: 12.77%
- LC-MS, peak area ratio (%): Reb D [5]: 1.70%
- LC-MS, peak area ratio (%): Reb E [5]: 42.56%
- LC-MS, peak area ratio (%): Stev [5]: 20.01%
- LC-MS, peak area ratio (%): Unknown peak #1 (MW966) RT = 22.60 min [5]: 4.48%
- LC-MS, peak area ratio (%): Unknown peak #2 (MW966) RT = 26.50 min [5]: 5.56%
- LC-MS, peak area ratio (%): Unknown peak #3 (MW966) RT = 29.50 min [5]: 25.70%
- Normalized initial rate (0-4 h) ([6]; UGTSL2 round 1 clone lysates, 30° C., pH 7.2, HPLC (CAD), baseline clone UGTSL2 defined as 100%): 100%
- Reb D2 content at 50% UDP-Glc conversion [6, 12]: 12.5%
- Reb M2 content at 100% UDP-Glc conversion [6, 12]: 100%
- Normalized initial rate for conversion of Rebaudioside A [7]: 100%
- Ratio between initial rates for the conversion of Rebaudioside A and Rebaudioside D [8]: 1.67
- Normalized initial rate for conversion of Rebaudioside A [9]: 100%
- Ratio between initial rates for the conversion of Rebaudioside A and Rebaudioside D [10]: 1.67

From patent publication US11653679B2, “High-purity steviol glycosides” (PureCircle Sdn Bhd, priority 2014, dated 2023)
